Results as given in the DeepSol protein solubility set.

Experiment: soluble on expression in E. coli; label from the status in PepcDB or PDB records
In the case of “MGSDKIHHHHHHMNDAAPTCTGGCTLNVLHTTTYHYSQPVEHAQQRAVATPPDLPWQSVTAHDTRIEPVPTHQHVRTDAFGNRVLHFMLDVPHTQMQLTCASTVVLTPRWQTLDPSASAPWETVAQSLRFHAAQPFEPATQFAFASPNIALHPSLRDYALPSFGAGVPVVAGAMDLMRRIHADFTYHSESTEVHTPAMQAFAQRSGVCQDFAQVMIGCLRSVGVAARYVSGYLCTEPPPGEERLVGADASHAWVSVYCPVAGWVDLDPTNNVLADTRHVTLAWGRDYSDVPLLHGVIVGGGAHGVDVGVTVVPVD”, the “soluble on expression in E. coli” value is reported as “not soluble”.
In the case of “MGSDKIHHHHHHMNEDYQKTIEFHGHECPGVTIGYRVSKYVLDHYERSEDEQLVAIVENNSCSIDGIQQMLGCTFGKGNLKFKDNGKHVYTFYSRGNDKALRIYLKYNLAEKVGNFNKKFNEGTLTAEDEKQMFERRKEAIKHLMEAPEEELFDVQWVEIEEPKKARLYPSLTCENCGETFMEIKGRTIDGKIVCKECFQKLVH”, the “soluble on expression in E. coli” value is reported as “not soluble”.
In the case of “MGSDKIHHHHHHMNFETVIGLEVHVELKTESKIFSASPNHFGAEPNANTSVIDLGYPGVLPVLNKAAVEFAMKAAMALNCEVATDTKFDRKNYFYPDNPKAYQISQFDKPIGENGWIEIEVDGTKKKIGITRLHLEEDAGKLTHSGNGYSLVDFNRQGTPLIEIVSEPDIRTPQEAYAYLEKLKSIIQYTGVSDCKMEEGSLRCDANISLRPVGQEEFGTKTELKNLNSFNFVRKGLEYEEKRQAQVLLSGGEILQETRRYDEAANKTVLMRVKEGSDDYRYFPEPDLVALHIDDEWKARIRSEIPELPDARKKRYVEELGLPAYDAMVLTLTKEMSDFFEETIAKGADPKLASNWLMGEVSGYLNAEQKELDEVALTPDGLAKMIQLIEKGTISSKIAKKVFKDLIEKGGDPEEIVKAKGLVQISDEGELRKYVVEVLDNNQQSIDDFKNGKDRAIGFLVGQIMKATKGKANPPMVNKLLLEEINKR”, the “soluble on expression in E. coli” value is reported as “not soluble”.
For “MGSDKIHHHHHHMNFKQLLIDNFTYKTSYIARQAQGMNVKETKDYIAVDCGLPADTFNIITLLNNNVTEGIEKLYKEVNNYNQKKFPMSVWFWDDRYEQTIKSELIKLDLKEAEQNIAMVAELNTIHPTINMPEGFTIQKASSPEQIKKFGETLANLFGSSEEGIHVQAFYNQTASFDLWNSGNMNLYLGLYKDEVISVGSLVCTKDSIGIYDIATKEEMRGKGFGSTMFHYLLQEAKALNVAQCVLQASPDGINIYKKAGFQSVGQMTVFENRHLFE”, the “soluble on expression in E. coli” value was “not soluble”.
In the case of “MGSDKIHHHHHHMNFLVRNLVENLEEGDRVILDVTHSFRSIPLMASVVALYLKEAKDVNVSVVYGKYNKETKVTECEDLTPLTKATSWIYAVRLFKEYGYAKELADLIKKRNEEIYRRSQSSKKPKLLGSMSQKLQDLSSSIRLGSIVAIRKNLTNFFNFIDRNKARIREETEVFVPEIAALLDGIEKRYRVIHVKSENFELSEKELESEKELLDFYLQTGDLGMALRLAREYLINVYLMSGGEKSDFLDRNVRESVSISTFGYDTILQARNHVAHFGFNKLQLPSLKKIEDHLKVLVQTPPEQLLESARKTQRNRKRALLTPLGTTKGALYTVLKKISPDLLLVITSKQGKAILSEILEKAEFKGEFRVILLEDPFMGVSEIDRVVSEIKEHLSDVDEVIVNLTGGTTFLTYVIERAKNQIRYGRKVKTILAVDKRTYEEQKQNPFVVGEILELD”, the “soluble on expression in E. coli” value is reported as “not soluble”.
For “MGSDKIHHHHHHMNFQRDFNDLLNALLTDWRNQFPDADLSQGSLIYMKSACLASALWGLYKYQEWISKQIFPDTAETKYLEHHAWVRGLSRRSGETDEELLARLLEYIRRPPAGGNKYDYQKWALEIDNVANAWCIPLSQGPGTVDVIIAADETVTGSEIPSSHALTGTTTAITENKLVDGAADFMATGDGGPVRIGDIAVNDDTGGQAVITAVDNATQLTLDTDIFSSIGQSYTLKSLTAQVGEYIDDVRPVTVSIVRILPPAVTLQDVTMTVTGTVNKEAIASAITSLLRSLVPGQTLYLSRLIAIAIQEGATNASISAPAADMSPGPYEMLRPGTITVS”, the “soluble on expression in E. coli” value was “not soluble”.
For “MGSDKIHHHHHHMNHPSVFHPGPAAISPQQRLLLMHEGEWEDFIEECVRQLQKEGNYVEVVALGGSGDKGRDVCGYSKEYPAAGTWDLYQAKHYDSPLTPSEFFPELAKFVTCVWREDYTRPAKYFICASRDVGTTLFDLLKNPVRLKERLLDDWRKKGGKFGKFKQPLDADLEKFIEVFPFDVVKRLPPMELLSIHERDTASYWARFGVLAPRENDPEVPPKPVSSESTYVTALLRVYAEHAQVKIDDVPDIPPAHGAHFKAQRRLFYSAEGLHRFSRDKLPGAFEALLDEVENGIGAELTFPHESGFVRLHSVLKTANVLQIMNNPLRARLRSGDLQGSCHHLANQGRAQWVESDEADGESV”, the “soluble on expression in E. coli” value was “not soluble”.
With “MGSDKIHHHHHHMNIDAHNLNDLMYFSQVVEHGGFSAAERVLGISKSRLSRRLTELEAALGVRLLQRSTRKLALTEAGELFYQHCQAMLAEAQAAMNAVQQLRSSPRGSVRVSVPVTLSQTMLSRILPEFLHRYPEVKVHIRVTNRVIDLFEDSVDVALRVRSEPPQNANIVVRPLWRTEQMLVGAPSLLSQNAPPLVPDDLARFETLDTPSVDGRHVFNLIAPDGTRHLHEHDPRLVTADLMTIREAVLDGLGIAALPEMMYGNALRAGQLSPVMPGWTLPVPQLYAAFVSRQGMPPAVRAFVDYLVEKLDHGDYKQPSCPERDKKEAAAADVSST” the “soluble on expression in E. coli” value was “not soluble”.
For “MGSDKIHHHHHHMNKSIRSSTLTRIRLIEAASQVFASLGVQGATTREIARVAGVNEVTLFRHFASKEQLLGAVIKNALALQTEALAYPEAWTQDLKIDLRQYAHLYNTMLEAQEDLIRTFIGEAKRHPEAAKQVIQEAAKPLREKLVAYLESSQKLGTVRVDLAPFPAVDMFTGMLLAGMLCRSAKFNQGSYSCEDYIETCVDIFVRGISTSNSSQCGCKF”, the “soluble on expression in E. coli” value was “not soluble”.
For “MGSDKIHHHHHHMNKTLVIGAAFVDVIVDVPKLPKTGDDIPGNLKSYVVGGSAFNVFGTLKHEKINTDLFVPVGEGNYANQIKEKMRELKIPIKLPVRGNDNGWDISFIEPGGERSFLTIQGIEQDWKTEWFKTININEYKYFYLSGYEMENENAGKVILKELQKRIPESLLLFDASPRISSISKTIIQKIMKKNVIINCNKEEANYFMPKGHSLEEKARRIYAKTESPVIVTLGSNGSYYYDGNDHIIPSEKKDKIINTIGAGDTHCGGILAGLNKDMSFKDSVILANRLSGLVVEKESGSL”, the “soluble on expression in E. coli” value was “not soluble”.
In the case of “MGSDKIHHHHHHMNLEQILLAISNPNDNELTIAGLEAAKVNWSVFYPELERLMDQFIADDTSLTDEQEAIVFFGTLLLAELKYSPALAKCLQLFARSDTYLTPIEAIFGDALTELTATLFFNVADGSTQTLSDYIVDGHQAMYCKASAIEAVFAQYEVGVIDKTELVEHVTRWLAAFLALPSSNNSFLISVLADSCIKYQLDDFKPQFIDLCDNDLFDEDRFKQCEVKAWDKANAAKLIESGNIQTKFNVVDTLNAWIVDDSNNEVADNMSNEDSDAFESLMGEDGLLADILYDENTILENSVPVSSLPTAGRNDPCPCGSGKKYKKCCLR”, the “soluble on expression in E. coli” value is reported as “not soluble”.
In the case of “MGSDKIHHHHHHMNLKDKTLLITGIDEFVGLRTAELAIAQGMKVRGLKSSTEQNKQLQNLGVEIIIGSITDSTIAQKACQGVDIVLHTDQLAEEAGAIKNFRDVNVGGTVNMAKAAKQAGVKTFVHLSSVMVYGFNYPNGVTESGPLSGENNPYCETKIEAETAVLELNNPPDFGIIVIRAGDVYGPGSIPWIVRPVLMMRQKLFACANDGKGVINHVYIDNLIDGIFLAIEKETYGEIFNITDGQETSWKEYFMRLAAMEGLSAPLSLPKDEIKLFLKLRVQGQKLFRKKVDILPESIDFMTRPYACSIVKAQSMLNYKPTIHLEEGMQRTHEWLQKTDIQSLIK”, the “soluble on expression in E. coli” value is reported as “not soluble”.
For “MGSDKIHHHHHHMNNTPTPPKVLLLLTSLHGGGAERVAVHLLNRLQGRFDMRMGLLRASGPYLDQADRSRLIVAPEGETHFNFDGPNSANYRPGKLVGSAVRAPLAFRRMIRETQPDVVLSFLKGTNLLVWLALMNMGRARPRWIAREGNNVLAVIREEAPNGAVARASRDLTAKAYRRADAVLANSTDMAAGLITDLDLDPAKMRMINNPIDIDGIREAAGESLPGAPNRPFILTAGRLEYQKAHEVLLRAFARSEAWRTHALVILGKGSRLGELHRLAAQLGIGEYVRFIGFVPNPYAWMARADLFVLPSRWEGFPTVAAEAMACGTPLLLTDCRFGARDIVEPGVTGELVPVNDEAALATEIAALLASPERRSALARAGREKVERFRLERMLEAYAALFDEQFAARRR”, the “soluble on expression in E. coli” value was “not soluble”.
In the case of “MGSDKIHHHHHHMNSLGAVIKEIRKNRKLTQKMLSEDICSQSVLSRIENNEELPNVLVMQQLCDRLGVTVDQIMRYKSGDVHVVTYSFEKMAEYFRHKKYQLLLNYLKENRIEEQLYLDTDWQKYYYYLGSCELFVLNDYEKAIASLRKGLSFTYKADKLNVSDLEIQLISCLGATYGYMGNRVEAERFLSLSIHYFNQLPNERSNAELTKIFFNYADFLFKNYTEKDAEIYVDQGITWARKKNSYYYLSELLNLKYLVLMRKNKHEEAERYLNLAQQMKNVESGNL”, the “soluble on expression in E. coli” value is reported as “not soluble”.
In the case of “MGSDKIHHHHHHMNSPADYDPKPRRASVAVDVGGVIVGGGAPVVVQSMTNTDTADIDATVRQVAALFQAGSEMVRITVDRDESAAAVPKIRERLLRLGMDVPLIGDFHYIGHKLLADHPACAEALAKYRINPGNVGFKDKKDKQFGEIVEMAIRYDKPVRIGVNWGSLDQELLTTLMDRNKEQGFPLSARQVTREAIVQSALISAELAEEIGLPRNRIILSAKVSQVQDLIAVYSMLSERSNHALHLGLTEAGMGSKGIVASSAAMGYVLQHGIGDTIRVSLTPEPNGDRTREVQVAQELLQVMGFRQFIPVVAACPGCGRTTSTVFQELAQNIQNDIRKNMPIWREKYPGVEALNVAVMGCIVNGPGESKHADIGISLPGTGESPAAPVFIDGEKALTLRGPNIAADFEALVIDYIEKRFGQKDAAE”, the “soluble on expression in E. coli” value is reported as “not soluble”.
In the case of “MGSDKIHHHHHHMNSPYTRSPRTIKHAFVTGATGLLGNNLVRALLKQGIKVTALVRSMEKARLQFGDLPIQYVKGDILNPEAFRSAFTDCDTLFHTAAFFRDSHKGGKHWQELYDTNVTGTTHLLKAAYEEGIRQMIHTSSIAVLKGERHQLIDETMSRDPSTKLDYYRSKILSENAVSNFLKEYPDLFLCYVLPGSMYGPGDMGPTATGQLILDYMQQKLPGIITKASYSVVDTRDVADIHILALKYGRRNERYLAAGRHMTMESIVKTLEEITGIPAPKRHIPIFLVQALAQWNELYHKITGKPVLVSKEIADITAEEYLRTYFSHKKTEQELGGQFRPFEETLLDTVRWYRNHGYLN”, the “soluble on expression in E. coli” value is reported as “not soluble”.
For “MGSDKIHHHHHHMNVAIIGCGYVGYQVAQYWQQKMNFVVSTTTTSPERVPALQSVSQRVFVTSGNDLDSLKSVLHNQDVVLLSVGAKGAEVYEETYLQTAQNLVSCLQQNPSVKQLIYTGSYAVYGDRNGVWVDEETPLAPANLNAQILRKTEDILLSASSENLRVCIFRLGGIYGPGRELLKIFSRYSGTNRPGGEDITNWIHLDDIVGAIEFARNRRLQGIYNLVDDAHLTSRDLLDSLFEKHNLPKVIWDTTVKSTRPYNAWVSNEKLKEAGYQLIHPQMIF”, the “soluble on expression in E. coli” value was “not soluble”.
In the case of “MGSDKIHHHHHHMNYLVISPFYPENFQPFTIELAKKEGVTVLGIGQEPYDQLPEELRNALTEYFRVEDLENIDEVKRAAAFLIYKHGPIDRVESHNEYWLENDAALREQFNIFGAKPKHLKKTKFKSEMKKYFKKAGVPVVPGVVVKSERDFGRALKNVGFPMIAKPDNGVGASGTFKIENKEDFDRFVETWDGATIYFLEKFVNSSIITTYDGLLDHEGNVVFETGLTYVHTPLELMLSRKDNAYFIEKELDPQLVKYGRAIIKAFGMRERFFHIEFFKDGDDYIAIEYNNRMAGGFTVEAYNYAHSIDLFRDYANVATGGTVEERRFEPQYCLVATRRDTTEYVHSADDIHQKFAGKIKTVKRMPDAFAELQGNDAYLLVTESKKELDEMIAYIGLTK”, the “soluble on expression in E. coli” value is reported as “not soluble”.
